The record followed here is doi:10.1101/2023.10.26.564194 (bioRxiv, 2023).

Assay [1] has as its target T1, recombinant His-tagged NRF2, full length (UniProt Q16236 1-605).
T1 sequence: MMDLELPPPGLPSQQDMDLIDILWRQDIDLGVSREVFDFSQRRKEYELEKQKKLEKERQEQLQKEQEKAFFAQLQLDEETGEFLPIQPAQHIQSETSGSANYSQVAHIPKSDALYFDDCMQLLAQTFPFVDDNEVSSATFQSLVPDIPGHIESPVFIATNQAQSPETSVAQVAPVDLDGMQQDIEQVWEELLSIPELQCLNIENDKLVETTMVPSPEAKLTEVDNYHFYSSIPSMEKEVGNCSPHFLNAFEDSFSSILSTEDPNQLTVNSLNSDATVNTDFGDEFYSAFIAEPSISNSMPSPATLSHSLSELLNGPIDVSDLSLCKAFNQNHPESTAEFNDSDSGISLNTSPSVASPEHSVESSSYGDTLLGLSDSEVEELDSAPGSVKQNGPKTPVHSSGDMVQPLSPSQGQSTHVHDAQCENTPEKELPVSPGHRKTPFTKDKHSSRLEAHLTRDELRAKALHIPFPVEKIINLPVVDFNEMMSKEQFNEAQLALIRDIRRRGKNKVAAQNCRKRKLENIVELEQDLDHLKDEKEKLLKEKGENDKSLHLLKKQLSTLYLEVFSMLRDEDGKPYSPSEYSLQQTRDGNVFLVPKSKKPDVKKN
The assay can be described thus: MST.

Assay [2] has as its target T2, recombinant His-Tag NRF2 truncation mutant Δ205-400 amino acids (Neh6/7 domains deleted) (UniProt Q16236 1-605, Δ205-400).
T2 sequence: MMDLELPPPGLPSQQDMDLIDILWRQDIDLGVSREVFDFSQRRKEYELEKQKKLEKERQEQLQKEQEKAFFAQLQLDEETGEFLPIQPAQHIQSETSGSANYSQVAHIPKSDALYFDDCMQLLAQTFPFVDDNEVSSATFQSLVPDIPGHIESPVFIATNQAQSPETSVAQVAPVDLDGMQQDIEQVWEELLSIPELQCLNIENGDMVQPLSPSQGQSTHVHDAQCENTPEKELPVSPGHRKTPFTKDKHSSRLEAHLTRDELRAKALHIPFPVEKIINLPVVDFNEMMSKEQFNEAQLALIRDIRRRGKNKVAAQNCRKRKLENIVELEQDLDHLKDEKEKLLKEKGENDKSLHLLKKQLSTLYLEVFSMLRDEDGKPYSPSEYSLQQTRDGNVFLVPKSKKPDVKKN
The assay can be described thus: pull-down.

B1: recombinant αB-crystallin (natural protein)
chain: MDIAIHHPWIRRPFFPFHSPSRLFDQFFGEHLLESDLFPTSTSLSPFYLRPPSFLRAPSWFDTGLSEMRLEKDRFSVNLDVKHFSPEELKVKVLGDVIEVHGKHEERQDEHGFISREFHRKYRIPADVDPLTITSSLSSDGVLTVNGPRKQVSGPERTIPITREEKPAVTAAPKK
Turning to B1, in assay [1], the Kd turned out to be 859 ± 70.1 nM. In addition, the binding result in assay [2] is “binds”.
